Ends that are not written are not given here. HPMA copolymer = HPMA copolymer made by RAFT copolymerization of HPMA with N-(3-aminopropyl)methacrylamide (APMA), bearing maleimide groups for grafting
Test: Pharmacokinetics at each cycle of a four-round treatment regimen
Assay type: in vivo, female mice
Parameters: PK curves: unit not given here
Conditions: for AUC0-t / AUC0-∞ / MRT0-t / MRT0-∞ / T1/2z: same

“P-CM2-Cy3: Cy3-labeled P-CM2 (C(HPMA copolymer)YGGEVSALEKEVSALEKKNSALEKEVSALEKEVSALEK; also: Cy3 label on conjugate, position not given here)” gave a PK curves (Round 3, Time 0.041667 Day, replicate 1) of 171.135, a PK curves (Round 3, Time 0.041667 Day, replicate 2) of 180.496 and a PK curves (Round 3, Time 0.041667 Day, replicate 3) of 188.668. For the same substance, the PK curves (Round 3, Time 0.041667 Day, replicate 4) was 205.584, the PK curves (Round 3, Time 0.041667 Day, replicate 5) was 224.681 and the PK curves (Round 3, Time 0.083333 Day, replicate 1) was 156.708. The PK curves (Round 3, Time 0.083333 Day, replicate 2) was 161.465, the PK curves (Round 3, Time 0.083333 Day, replicate 3) was 162.063 and the PK curves (Round 3, Time 0.083333 Day, replicate 4) was 168.293. The PK curves (Round 3, Time 0.083333 Day, replicate 5) was 190.32, the PK curves (Round 3, Time 0.166667 Day, replicate 1) was 118.152 and the PK curves (Round 3, Time 0.166667 Day, replicate 2) was 137.258. The PK curves (Round 3, Time 0.166667 Day, replicate 3) was 138.998, the PK curves (Round 3, Time 0.166667 Day, replicate 4) was 139.637 and the PK curves (Round 3, Time 0.166667 Day, replicate 5) was 146.663. It also gave a PK curves (Round 3, Time 0.25 Day, replicate 1) of 101.928, a PK curves (Round 3, Time 0.25 Day, replicate 2) of 105.033 and a PK curves (Round 3, Time 0.25 Day, replicate 3) of 108.293. The PK curves (Round 3, Time 0.25 Day, replicate 4) was 115.298, the PK curves (Round 3, Time 0.25 Day, replicate 5) was 119.681 and the PK curves (Round 3, Time 0.333333 Day, replicate 1) was 71.2229. The PK curves (Round 3, Time 0.333333 Day, replicate 2) was 72.9543, the PK curves (Round 3, Time 0.333333 Day, replicate 3) was 93.0071 and the PK curves (Round 3, Time 0.333333 Day, replicate 4) was 101.069. The PK curves (Round 3, Time 0.333333 Day, replicate 5) was 102.809, the PK curves (Round 3, Time 0.5 Day, replicate 1) was 54.5332 and the PK curves (Round 3, Time 0.5 Day, replicate 2) was 55.1656. The PK curves (Round 3, Time 0.5 Day, replicate 3) was 58.857, the PK curves (Round 3, Time 0.5 Day, replicate 4) was 63.5997 and the PK curves (Round 3, Time 0.5 Day, replicate 5) was 67.2877. The PK curves (Round 3, Time 1 Day, replicate 1) was 18.8846, the PK curves (Round 3, Time 1 Day, replicate 2) was 19.9794 and the PK curves (Round 3, Time 1 Day, replicate 3) was 34.0857. The PK curves (Round 3, Time 1 Day, replicate 4) was 37.3031, the PK curves (Round 3, Time 1 Day, replicate 5) was 39.9731 and the PK curves (Round 3, Time 2 Day, replicate 1) was 13.6659. It also gave a PK curves (Round 3, Time 2 Day, replicate 2) of 15.2182, a PK curves (Round 3, Time 2 Day, replicate 3) of 16.959 and a PK curves (Round 3, Time 2 Day, replicate 4) of 18.4095. The PK curves (Round 3, Time 2 Day, replicate 5) was 23.265, the PK curves (Round 3, Time 3 Day, replicate 1) was 5.299 and the PK curves (Round 3, Time 3 Day, replicate 2) was 5.6755. For the same substance, the PK curves (Round 3, Time 3 Day, replicate 3) was 6.127, the PK curves (Round 3, Time 3 Day, replicate 4) was 11.4512 and the PK curves (Round 3, Time 3 Day, replicate 5) was 11.8082. For the same substance, the AUC0-t (Round 3) was 2847.475 ± 463.394 ng·h/mL, the “AUC0-∞” value (Round 3) was 3060.689 ± 565.511 ng·h/mL and the MRT0-t (Round 3) was 17.779 ± 1.27 h. For the same substance, the “MRT0-∞” value (Round 3) was 23.927 ± 3.854 h, the T1/2z (Round 3) was 19.193 ± 3.042 h and the PK curves (Round 4, Time 0.041667 Day, replicate 1) was 230.725. The PK curves (Round 4, Time 0.041667 Day, replicate 2) was 194.218, the PK curves (Round 4, Time 0.041667 Day, replicate 3) was 209.902 and the PK curves (Round 4, Time 0.041667 Day, replicate 4) was 229.24. For the same substance, the PK curves (Round 4, Time 0.041667 Day, replicate 5) was 229.61, the PK curves (Round 4, Time 0.083333 Day, replicate 1) was 173.583 and the PK curves (Round 4, Time 0.083333 Day, replicate 2) was 157.544. It also gave a PK curves (Round 4, Time 0.083333 Day, replicate 3) of 163.249, a PK curves (Round 4, Time 0.083333 Day, replicate 4) of 167.214 and a PK curves (Round 4, Time 0.083333 Day, replicate 5) of 205.861. It also gave a PK curves (Round 4, Time 0.166667 Day, replicate 1) of 141.479, a PK curves (Round 4, Time 0.166667 Day, replicate 2) of 127.721 and a PK curves (Round 4, Time 0.166667 Day, replicate 3) of 129.082. It also gave a PK curves (Round 4, Time 0.166667 Day, replicate 4) of 138.936, a PK curves (Round 4, Time 0.166667 Day, replicate 5) of 150.211 and a PK curves (Round 4, Time 0.25 Day, replicate 1) of 117.333. For the same substance, the PK curves (Round 4, Time 0.25 Day, replicate 2) was 116.423, the PK curves (Round 4, Time 0.25 Day, replicate 3) was 120.111 and the PK curves (Round 4, Time 0.25 Day, replicate 4) was 124.299. The PK curves (Round 4, Time 0.25 Day, replicate 5) was 125.432, the PK curves (Round 4, Time 0.333333 Day, replicate 1) was 69.1458 and the PK curves (Round 4, Time 0.333333 Day, replicate 2) was 73.8277. For the same substance, the PK curves (Round 4, Time 0.333333 Day, replicate 3) was 84.2185, the PK curves (Round 4, Time 0.333333 Day, replicate 4) was 100.254 and the PK curves (Round 4, Time 0.333333 Day, replicate 5) was 118.152. It also gave a PK curves (Round 4, Time 0.5 Day, replicate 1) of 43.1042, a PK curves (Round 4, Time 0.5 Day, replicate 2) of 47.0545 and a PK curves (Round 4, Time 0.5 Day, replicate 3) of 50.0192. For the same substance, the PK curves (Round 4, Time 0.5 Day, replicate 4) was 54.418, the PK curves (Round 4, Time 0.5 Day, replicate 5) was 70.7604 and the PK curves (Round 4, Time 1 Day, replicate 1) was 21.2271. For the same substance, the PK curves (Round 4, Time 1 Day, replicate 2) was 23.1099, the PK curves (Round 4, Time 1 Day, replicate 3) was 27.0861 and the PK curves (Round 4, Time 1 Day, replicate 4) was 30.0884. The PK curves (Round 4, Time 1 Day, replicate 5) was 41.0104, the PK curves (Round 4, Time 2 Day, replicate 1) was 4.911 and the PK curves (Round 4, Time 2 Day, replicate 2) was 16.8258. It also gave a PK curves (Round 4, Time 2 Day, replicate 3) of 17.3047, a PK curves (Round 4, Time 2 Day, replicate 4) of 21.1219 and a PK curves (Round 4, Time 2 Day, replicate 5) of 21.2086. It also gave a PK curves (Round 4, Time 3 Day, replicate 1) of 3.457, a PK curves (Round 4, Time 3 Day, replicate 2) of 6.287 and a PK curves (Round 4, Time 3 Day, replicate 3) of 7.344. For the same substance, the PK curves (Round 4, Time 3 Day, replicate 4) was 8.892, the PK curves (Round 4, Time 3 Day, replicate 5) was 12.3135 and the AUC0-t (Round 4) was 2805.642 ± 501.797 ng·h/mL. The “AUC0-∞” value (Round 4) was 3022.978 ± 666.243 ng·h/mL, the MRT0-t (Round 4) was 16.883 ± 2.739 h and the “MRT0-∞” value (Round 4) was 22.801 ± 5.68 h. For the same substance, the T1/2z (Round 4) was 18.712 ± 5.773 h.

Source: publication PMC10980815, “Cell surface patching via CXCR4-targeted nanothreads for cancer metastasis inhibition” (Nature Communications, 2024)
